Source: the supplement of paper PMC5998384

What was measured:
HeLa Kyoto [1] = experiment: solubility in G1/S (NP-40 vs SDS abundance) (log2 ratio); higher = more soluble; conditions: cell cycle stage: G1/S
HeLa Kyoto [2] = experiment: melting temperature (median over replicates), in situ; higher = more thermally stable
HeLa Kyoto [3] = experiment: solubility change mitosis vs G1/S (difference of NP-40 vs SDS log2 ratios) (log2 ratio difference); higher = more soluble in mitosis
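For melting temperature (median over replicates), in situ in this document: HeLa Kyoto cells synchronized by double thymidine or nocodazole block, proteins quantified by TMT10plex mass spectrometry, three independent biological replicates.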
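For solubility change mitosis vs G1/S (difference of NP-40 vs SDS log2 ratios) in this document: synchronized HeLa Kyoto cells (double thymidine block for G1/S, nocodazole release for mitosis), protein amounts in NP-40 versus SDS lysates quantified by mass spectrometry, three biological replicates.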
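For solubility in G1/S (NP-40 vs SDS abundance) in this document: HeLa Kyoto cells arrested at G1/S by double thymidine block, proteins quantified by TMT10plex mass spectrometry in mild NP-40 versus SDS extracts, three biological replicates.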

MAVAIAAARVWRLNRGLSQAALLLLRQPGARGLARSHPPRQQQQFSSLDDKPQFPGASAEFIDKLEFIQPNVISGIPIYRVMDRQGQIINPSEDPHLPKEKVLKLYKSMTLLNTMDRILYESQRQGRISFYMTNYGEEGTHVGSAAALDNTDLVFGQYREAGVLMYRDYPLELFMAQCYGNISDLGKGRQMPVHYGCKERHFVTISSPLATQIPQAVGAAYAAKRANANRVVICYFGEGAASEGDAHAGFNFAATLECPIIFFCRNNGYAISTPTSEQYRGDGIAARGPGYGIMSIRVDGNDVFAVYNATKEARRRAVAENQPFLIEAMTYRIGHHSTSDDSSAYRSVDEVNYWDKQDHPISRLRHYLLSQGWWDEEQEKAWRKQSRRKVMEAFEQAERKPKPNPNLLFSDVYQEMPAQLRKQQESLARHLQTYGEHYPLDHFDK [BCKDHA]
solubility in G1/S (log2) (HeLa Kyoto [1]): 0.0962
melting temperature (HeLa Kyoto [2]; cell cycle stage: G1/S): 52.2 °C
melting temperature (HeLa Kyoto [2]; cell cycle stage: mitosis): 52.2 °C
solubility change mitosis (log2) (HeLa Kyoto [3]): -0.0598

MDDKAFTKELDQWVEQLNECKQLNENQVRTLCEKAKEILTKESNVQEVRCPVTVCGDVHGQFHDLMELFRIGGKSPDTNYLFMGDYVDRGYYSVETVTLLVALKVRYPERITILRGNHESRQITQVYGFYDECLRKYGNANVWKYFTDLFDYLPLTALVDGQIFCLHGGLSPSIDTLDHIRALDRLQEVPHEGPMCDLLWSDPDDRGGWGISPRGAGYTFGQDISETFNHANGLTLVSRAHQLVMEGYNWCHDRNVVTIFSAPNYCYRCGNQAAIMELDDTLKYSFLQFDPAPRRGEPHVTRRTPDYFL [PPP2CB]
solubility in G1/S (log2) (HeLa Kyoto [1]): 0.0545
melting temperature (HeLa Kyoto [2]; cell cycle stage: G1/S): 45.7 °C
melting temperature (HeLa Kyoto [2]; cell cycle stage: mitosis): 54.8 °C
solubility change mitosis (log2) (HeLa Kyoto [3]): -0.00731

MDEERALYIVRAGEAGAIERVLRDYSDKHRATFKFESTDEDKRKKLCEGIFKVLIKDIPTTCQVSCLEVLRILSRDKKVLVPVTTKENMQILLRLAKLNELDDSLEKVSEFPVIVESLKCLCNIVFNSQMAQQLSLELNLAAKLCNLLRKCKDRKFINDIKCFDLRLLFLLSLLHTDIRSQLRYELQGLPLLTQILESAFSIKWTDEYESAIDHNGPPLSPQETDCAIEALKALFNVTVDSWKVHKESDSHQFRVMAAVLRHCLLIVGPTEDKTEELHSNAVNLLSNVPVSCLDVLICPLTHEETAQEATTLDELPSNKTAEKETVLKNNTMVYNGMNMEAIHVLLNFMEKRIDKGSSYREGLTPVLSLLTECSRAHRNIRKFLKDQVLPPLRDVTNRPEVGSTVRNKLVRLMTHVDLGVKQIAAEFLFVLCKERVDSLLKYTGYGNAAGLLAARGLLAGGRGDNWYSEDEDTDTEEYKNAKPKEELLKPMGLKPDGTITPLEEALNQYSVIEETSSDTD [RIC8B]
solubility in G1/S (log2) (HeLa Kyoto [1]): -0.00976
melting temperature (HeLa Kyoto [2]; cell cycle stage: G1/S): 49.4 °C
melting temperature (HeLa Kyoto [2]; cell cycle stage: mitosis): 49.8 °C
solubility change mitosis (log2) (HeLa Kyoto [3]): -0.194

MDNRFATAFVIACVLSLISTIYMAASIGTDFWYEYRSPVQENSSDLNKSIWDEFISDEADEKTYNDALFRYNGTVGLWRRCITIPKNMHWYSPPERTESFDVVTKCVSFTLTEQFMEKFVDPGNHNSGIDLLRTYLWRCQFLLPFVSLGLMCFGALIGLCACICRSLYPTIATGILHLLAGLCTLGSVSCYVAGIELLHQKLELPDNVSGEFGWSFCLACVSAPLQFMASALFIWAAHTNRKEYTLMKAYRVA [CLDND1]
solubility in G1/S (log2) (HeLa Kyoto [1]): -0.395
melting temperature (HeLa Kyoto [2]; cell cycle stage: mitosis): 58.6 °C
solubility change mitosis (log2) (HeLa Kyoto [3]): 0.186

MDPLFQQTHKQVHEIQSCMGRLETADKQSVHIVENEIQASIDQIFSRLERLEILSSKEPPNKRQNARLRVDQLKYDVQHLQTALRNFQHRRHAREQQERQREELLSRTFTTNDSDTTIPMDESLQFNSSLQKVHNGMDDLILDGHNILDGLRTQRLTLKGTQKKILDIANMLGLSNTVMRLIEKRAFQDKYFMIGGMLLTCVVMFLVVQYLT [GOSR2]
solubility in G1/S (log2) (HeLa Kyoto [1]): 0.00468
melting temperature (HeLa Kyoto [2]; cell cycle stage: G1/S): 51.8 °C
melting temperature (HeLa Kyoto [2]; cell cycle stage: mitosis): 51.4 °C
solubility change mitosis (log2) (HeLa Kyoto [3]): 0.0667

MDTAEDPAWLQLLQKDSSPPGPRPTAFFCPQDGSLGAGSSAMRDYCPSQQKASPAPPRHTPDQSPGMESRHRSPSGAGEGASCSDGPRGSLACPSPTCFSPQESPSKETLEAHGASISGTPEATTSGKPEPVSSVKTEPKSSDDRNPMFLEKMDFKSSKQADSTSIGKEDPGSSRKADPMFTGKAEPEILGKGDPVAPGRMDPMTVRKEDLGSLGKVDPLCSSKTYTVSPRKEDPGSLRKVDPVSSDKVDPVFPRKEEPRYSGKEHPVSSEKVAPTSAEKVDLVLSGKRDPGPSGKADPMPLESMDSASTGKTEPGLLGKLIPGSSGKNGPVSSGTGAPGSLGRLDPTCLGMADPASVGNVETVPATKEDSRFLGKMDPASSGEGRPVSGHTDTTASAKTDLTSLKNVDPMSSGKVDPVSLGKMDPMCSGKPELLSPGQAERVSVGKAGTVSPGKEDPVSSRREDPISAGSRKTSSEKVNPESSGKTNPVSSGPGDPRSLGTAGPPSAVKAEPATGGKGDPLSSEKAGLVASGKAAPTASGKAEPLAVGKEDPVSKGKADAGPSGQGDSVSIGKVVSTPGKTVPVPSGKVDPVSLGKAEAIPEGKVGSLPLEKGSPVTTTKADPRASGKAQPQSGGKAETKLPGQEGAAAPGEAGAVCLKKETPQASEKVDPGSCRKAEPLASGKGEPVSLGKADSAPSRKTESPSLGKVVPLSLEKTKPSSSSRQLDRKALGSARSPEGARGSEGRVEPKAEPVSSTEASSLGQKDLEAAGAERSPCPEAAAPPPGPRTRDNFTKAPSWEASAPPPPREDAGTQAGAQACVSVAVSPMSPQDGAGGSAFSFQAAPRAPSPPSRRDAGLQVSLGAAETRSVATGPMTPQAAAPPAFPEVRVRPGSALAAAVAPPEPAEPVRDVSWDEKGMTWEVYGAAMEVEVLGMAIQKHLERQIEEHGRQGAPAPPPAARAGPGRSGSVRTAPPDGAAKRPPGLFRALLQSVRRPRCCSRAGPTAE [GPRIN1]
solubility in G1/S (log2) (HeLa Kyoto [1]): 0.2
melting temperature (HeLa Kyoto [2]; cell cycle stage: G1/S): 54.4 °C
melting temperature (HeLa Kyoto [2]; cell cycle stage: mitosis): 53.5 °C
solubility change mitosis (log2) (HeLa Kyoto [3]): -0.114
